In assay [1] the target is T1, recombinant fibronectin domain ED-B (His)6 (human, UniProt P02751 1266-1356).
T1 construct: domain: ED-B; Biotinylated ED-B was used only in pannings; also called rekombinantes ED-B; human ED-B
The experiment in a line: SPR (BIAcore), about 100 RU ED-B on chip, Fab in flow. On the technique in general: SPR reads the build-up and loss of mass on a sensor chip optically.

Assay [2] addresses T1, recombinant fibronectin domain ED-B …. The assay can be described thus: SPR (BIAcore), ED-B on chip, Fab in flow.
Assay [3] shares this target. The experiment in a line: SPR (BIAcore), ED-B on chip, Fab monomer in flow.

Where a chain is given by its changes, count along the chain named.

In general, Kd refers to the constant that tells how readily two partners part at equilibrium.

B1: MOR03246 (Fab, V domains shown)
VH: QVQLVQSGAEVKKPGASVKVSCKASGYTFTGFYINWVRQAPGQGLEWMGWINPYSGNTRYAQKFQGRVTMTRDTSISTAYMELSSLRSEDTAVYYCARSPVYYKYDYWGQGTLVTVSS
VL: DIVLTQPPSVSGAPGQRVTISCSGSSSNIGSNTVRWYQQLPGTAPKLLIYSNNKRPSGVPDRFSGSKSGTSASLAITGLQSEDEADYYCQSWDPRSFTVFGGGTKLTVL
Turning to B1, in assay [1], the Kd came out at 0.6 nM.

B2: MOR03255 (Fab, V domains shown)
VH: QVQLVESGGGLVQPGGSLRLSCAASGFTFSSYGMHWVRQAPGKGLEWVSVISNRSSYIYYADSVKGRFTISRDNSKNTLYLQMNSLRAEDTAVYYCARNKVGFDVWGQGTLVTVSS
VL: DIALTQPASVSGSPGQSITISCTGTSSDGGGYNTVSWYQQHPGKAPKLMIYYVHKRPSGVSNRFSGSKSGNTASLTISGLQAEDEADYYCQSWDLSVHQVVFGGGTKLTVLG
As to B2, the Kd in assay [1] was found to be 0.03 nM.

B3: MOR03258 (Fab, V domains shown)
VH: B2 VH with R54Q, S56N
VL: DIALTQPASVSGSPGQSITISCTGTSSDGGGYNTVSWYQQHPGKAPKLMIYYVHKRPSGVSNRFSGSKSGNTASLTISGLQAEDEADYYCQSWDLLAPSVVFGGGTKLTVL
Take B3: the Kd in assay [1] was determined as 0.04 nM.

B4: MOR03062 (Fab, V domains shown)
VH: B2 VH with N53S, R54S, S55G
VL: B2 VL
Consider B4, for which the “fold affinity enhancement against MOR02715” value in assay [2] amounted to 15 fold. Further, the dissociation constant Kd in assay [3] was 2.4 nM.

B5: MOR03243 (Fab, V domains shown)
VH: QVQLQESGPGLVKPGETLSLTCTVSGGSISSYYWSWIRQAPGKGLEWIGEIHRGGYTQYNPSLKSRVTISVDTSKNQFSLKLSSVTAADTAVYYCARFFDVWGQGTLVTVSS
VL: DIVLTQPPSVSGAPGQRVTISCSGSSSNIGSNTVRWYQQLPGTAPKLLIYSNNKRPSGVPDRFSGSKSGTSASLAITGLQSEDEADYYCQAWTRAHRYPVFGGGTKLTVLG
Consider B5, for which the Kd in assay [1] was around 0.7 nM.

B6: MOR03245 (Fab, V domains shown)
VH: B5 VH with E50V, R53K, G54W, Y56F, Q58N
VL: DIVLTQPPSVSGAPGQRVTISCSGSSSNIGSNTVRWYQQLPGTAPKLLIYSNNKRPSGVPDRFSGSKSGTSASLAITGLQSEDEADYYCWTGMSYHFVFGGGTKLTVLG
Turning to B6, the Kd in assay [1] is around 0.7 nM.

B7: MOR03075 (Fab, V domains shown)
VH: QVQLQESGPGLVKPGETLSLTCTVSGGSISSYYWSWIRQAPGKGLEWIGIGHWGSTQYNPSLKGRVTISVDTSKNQFSLKLSSVTAEDTAVYYCARFFDVWGQGTLVTVSS
VL: DIVLTQPPSVSGAPGQRVTISCSGSSSNIGSNTVRWYQQLPGTAPKLLIYSNNKRPSGVPDRFSGSKSGTSASLAITGLQSEDEADYYCQSWDPRSFTVFGGGTKLTVLG
Regarding B7, the Kd in assay [2] is 2.4 nM.

The values above are taken from patent publication WO2007054120A1 (dated 2007).
